Experimental data published in paper PMC8452523 (Cell Reports, 2021).

Target: trimeric Spike, full B.1.351 variant (SARS-CoV-2, lineage B.1.351 (Beta), strain)
Test: Luminex bead-based binding assay

B1: REGN10933 (antibody, V domains shown)
VH: QVQLVESGGGLVKPGGSLRLSCAASGFTFSDYYMSWIRQAPGKGLEWVSYITYSGSTIYYADSVKGRFTISRDNAKSSLYLQMNSLRAEDTAVYYCARDRGTTMVPFDYWGQGTLVTVSS
VL: DIQMTQSPSSLSASVGDRVTITCQASQDITNYLNWYQQKPGKAPKLLIYAASNLETGVPSRFSGSGSGTDFTFTISGLQPEDIATYYCQQYDNLPLTFGGGTKVEIK
- fold reduced binding affinity: 15 fold
